12 molecules from patent US20260027220A1, “EPHA2 BCL-XL INHIBITOR ANTIBODY-DRUG CONJUGATES AND METHODS OF USE THEREOF” (Novartis AG, priority 2022, published 2026) can be followed below.

Where a chain is given by its changes, count along the chain named. Numbers in names are those of the source. Where “and” joins values, the source holds several entries; their conditions need not be identical. Identical values can stand only once.

The target in experiment [1] is T1, human EphA2 expressed on HKB-11 cells (human, UniProt P29317 24-976).
T1 construct: The HKB-11 cells were transduced to overexpress EphA2; also called HKB-11 EphA2+ cell line
The experiment in a line: KinExA avid equilibrium KD on cells, average of replicates.
Protocol: (§1) Free antibody in equilibrium titration reactions were measured by KinExA using a KinExA 3200, Autosampler (Sapidyne). Data were analyzed using KinExA Pro 4-5-X (Sapidyne).
(§2) Anti-EphA2 antibody was diluted in PBS with 10% HI-FBS and 0.04% sodium azide to 2× the final concentration of binding sites needed for equilibrium titration. […] Cells and antibody were combined 1:1 in an eppendorf tube and incubated overnight, 4° C., rotating. Buffer and antibody alone samples were included. Cells were pelleted and supernatants were transferred to a 2 ml 96-well deep well plate covered with pierceable film.
Data were analyzed by n-Curve Analysis.

In experiment [2] the target is T2, mouse EphA2 ectodomain (mouse, UniProt Q03145 26-538).
T2 construct: extracellular domain
The experiment in a line: SPR (Biacore 8k), Fab-capture, 37C, 1:1 model.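 Further: Anti-EphA2 IgG captured via immobilized anti-Fab, soluble EphA2 ectodomain as analyte at six twofold dilutions from 50 nM, HBS-EP+ pH 7.6 running buffer, double reference subtraction.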 In general terms: In SPR one partner is held on a chip, and binding of the other changes the refractive index at the surface.
Protocol: (§3) A human Fab capture method was utilized in order to determine kinetics for the antibodies. […] Each channel has two flow cells. The reference flow cell contained only immobilized anti-Fab, whereas the reaction flow cell captured anti-EphA2 IgG through anti-Fab. HBS-EP+ Buffer, pH 7.6 was used as the running buffer. The soluble human, mouse and cyno EphA2 ectodomain flowed over both flow cells on 8 channels. The EphA2 ectodomain concentration started at 50 nM and was serially diluted at one part to one part (1:1) in the running buffer for six concentrations. The analysis chamber was kept at 37° C. Regeneration was performed at the end of each sample washing with the solution of 10 mM Glycine-HCl, pH 2.1 provided in the kit.
(§4) The data were analysed using the Biacore Insight Evaluation Software. Double reference subtraction was completed to generate the final data. The raw data was fitted to a 1:1 binding model, with parameter(s) Rₘₐₓ set to local.

Experiment [3] has as its target T3, cyno EphA2 ectodomain (cyno, UniProt Q1KL86 25-537).
T3 construct: extracellular domain
The experiment is described as follows: SPR (Biacore 8k), Fab-capture, 37C, 1:1 model.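 Further: Anti-EphA2 IgG captured via immobilized anti-Fab, soluble EphA2 ectodomain as analyte at six twofold dilutions from 50 nM, HBS-EP+ pH 7.6 running buffer, double reference subtraction.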
Protocol: as §3, §4

The target in experiment [4] is T4, human EphA2 ectodomain (human, UniProt P29317 24-537).
T4 construct: Soluble ectodomain used as the SPR analyte
The experiment is described as follows: SPR (Biacore 8k), Fab-capture, 37C, 1:1 model.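 Further: Anti-EphA2 IgG captured via immobilized anti-Fab, soluble EphA2 ectodomain as analyte at six twofold dilutions from 50 nM, HBS-EP+ pH 7.6 running buffer, double reference subtraction.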
Protocol: as §3, §4

Experiment [5] concerns the target T1, human EphA2 expressed on HKB-11 cells. The experiment is described as follows: flow cytometry on HKB-11 cells overexpressing EphA2; lot DE-54-AX20. A general note: Flow cytometry measures light scatter and fluorescence of single cells or particles in a stream.
Protocol: (§5) The binding affinity of EphA2 antibodies on cells was evaluated using flow cytometry (FACS). […] Cell lines were cultured in media that is optimal for their growth at 5% CO₂, 37° C. in a tissue culture incubator. Cell viability and cell density were determined using a cell counter (Vi-Cell XR Cell Viability Analyzer, Beckman Coulter). […] All subsequent steps were performed on ice and in ice cold FACS buffer to prevent internalization of the receptor. Cells were resuspended in 100 μL of FACS buffer containing an 11-point serial dilution of test antibodies at final concentrations of 200 nM-0.003 nM. Cells were incubated at 4° C. for 45 minutes. Following incubation, cells were washed three times in ice cold PBS at 1000 rpm for 5 minutes with 200 μL FACS buffer. […] Cells were incubated in the dark at 4° C. for 45 minutes. Following incubation, cells were washed three times in ice cold PBS at 1000 rpm for 5 minutes with 200 μL FACS buffer. Cells were then resuspended in 100 μL FACS buffer containing DAPI (ThermoFisher, #D1306) staining followed by readout via flow cytometry (MACSQuant® Analyzer 10). Data was analyzed using FlowJo v10.8.1 to obtain MFI (Mean Fluorescence Intensity) on live cells. EC₅₀ values were calculated using the GraphPad Prism 9 software. There were three rounds of experiments performed to evaluate three groupings of EphA2 antibodies. […]
Experiment [6] has the same target. The experiment in a line: flow cytometry on HKB-11 cells overexpressing EphA2; lot VE-39-AK34.
Protocol: as §5
Experiment [7] shares this target. The experiment is described as follows: KinExA apparent (avid) equilibrium KD on human EphA2 HKB-11 cells. A general note: In KinExA the mixture passes briefly over coated beads that capture the unbound partner.
Protocol: as §1, §2
Data were analyzed by n-Curve Analysis.
Experiment [8] has the same target. The experiment in a line: flow cytometry on HKB-11 cells overexpressing EphA2; lot ZE-39-AG34.
Protocol: as §5
The target is the same in experiment [9]. The experiment is described as follows: flow cytometry on HKB-11 cells overexpressing EphA2; lot ZF-74-CQ11.
Protocol: as §5
The target is the same in experiment [10]. The experiment is described as follows: flow cytometry on HKB-11 cells overexpressing EphA2; lot HE-07-PV32.
Protocol: as §5
Experiment [11] shares this target. The experiment in a line: flow cytometry on HKB-11 cells overexpressing EphA2; lot PE-07-PN32.
Protocol: as §5
For experiment [12] the target is unchanged. The experiment is described as follows: flow cytometry on HKB-11 cells overexpressing EphA2; lot FE-76-NO13.
Protocol: as §5
The target is the same in experiment [13]. The experiment is described as follows: flow cytometry on HKB-11 cells overexpressing EphA2; lot DE-39-AD34.
Protocol: as §5
Experiment [14] has the same target. The experiment in a line: flow cytometry on HKB-11 cells overexpressing EphA2; lot DA-62-QP06.
Protocol: as §5
Experiment [15] has the same target. The experiment in a line: flow cytometry on HKB-11 cells overexpressing EphA2; lot HA-13-AF39.
Protocol: as §5
Experiment [16] concerns the target T2, mouse EphA2 ectodomain. The experiment in a line: SPR (Biacore 8k), Fab-capture, 37C.
Protocol: as §3, §4
For experiment [17], the target named is T3, cyno EphA2 ectodomain. The experiment is described as follows: SPR (Biacore 8k), Fab-capture, 37C.
Protocol: as §3, §4
For experiment [18], the target named is T1, human EphA2 expressed on HKB-11 cells. The experiment is described as follows: flow cytometry on HKB-11 cells overexpressing EphA2; lot HD-58-MP05.
Protocol: as §5
Experiment [19] deals with T3, cyno EphA2 ectodomain. The experiment is described as follows: SPR (Biacore 8k), Fab-capture, 37C, 1:1 model; *low binding signal.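 Further: Anti-EphA2 IgG captured via immobilized anti-Fab, soluble EphA2 ectodomain as analyte at six twofold dilutions from 50 nM, HBS-EP+ pH 7.6 running buffer, double reference subtraction.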
Protocol: as §3, §4
The target in experiment [20] is T4, human EphA2 ectodomain. The experiment is described as above.
Protocol: as §3, §4
Experiment [21] addresses T1, human EphA2 expressed on HKB-11 cells. The experiment is described as follows: flow cytometry on HKB-11 cells overexpressing EphA2; lot PA-62-QD06.
Protocol: as §5
Experiment [22] concerns the target T2, mouse EphA2 ectodomain. The experiment in a line: SPR (Biacore 8k), Fab-capture, 37C, 1:1 model; *low binding signal.
Protocol: as §3, §4
In experiment [23] the target is T1, human EphA2 expressed on HKB-11 cells. The experiment in a line: flow cytometry on HKB-11 cells overexpressing EphA2; lot DC-69-ID09.
Protocol: as §5
The target is the same in experiment [24]. The experiment is described as follows: FACS titration on HKB-11 cells transduced to overexpress EphA2 (200 to 0.003 nM antibody, Alexa Fluor 647 anti-human IgG, MFI of live cells).
Protocol: as §5

T4 sequence (P29317 24-537 limits assumed): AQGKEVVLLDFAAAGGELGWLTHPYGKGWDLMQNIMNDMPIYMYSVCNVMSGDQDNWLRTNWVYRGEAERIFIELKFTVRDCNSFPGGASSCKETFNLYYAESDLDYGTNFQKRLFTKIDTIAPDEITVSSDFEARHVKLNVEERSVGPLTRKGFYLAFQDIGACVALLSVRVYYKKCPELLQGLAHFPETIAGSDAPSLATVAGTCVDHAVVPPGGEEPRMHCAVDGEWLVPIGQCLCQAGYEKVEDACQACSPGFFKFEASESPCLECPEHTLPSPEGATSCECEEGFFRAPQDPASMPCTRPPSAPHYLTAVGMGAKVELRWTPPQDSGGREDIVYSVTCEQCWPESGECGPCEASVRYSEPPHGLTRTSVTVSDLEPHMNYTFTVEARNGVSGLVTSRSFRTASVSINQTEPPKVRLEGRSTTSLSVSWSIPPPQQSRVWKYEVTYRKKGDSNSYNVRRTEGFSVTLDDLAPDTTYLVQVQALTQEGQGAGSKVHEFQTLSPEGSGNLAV
T3 sequence (Q1KL86 25-537): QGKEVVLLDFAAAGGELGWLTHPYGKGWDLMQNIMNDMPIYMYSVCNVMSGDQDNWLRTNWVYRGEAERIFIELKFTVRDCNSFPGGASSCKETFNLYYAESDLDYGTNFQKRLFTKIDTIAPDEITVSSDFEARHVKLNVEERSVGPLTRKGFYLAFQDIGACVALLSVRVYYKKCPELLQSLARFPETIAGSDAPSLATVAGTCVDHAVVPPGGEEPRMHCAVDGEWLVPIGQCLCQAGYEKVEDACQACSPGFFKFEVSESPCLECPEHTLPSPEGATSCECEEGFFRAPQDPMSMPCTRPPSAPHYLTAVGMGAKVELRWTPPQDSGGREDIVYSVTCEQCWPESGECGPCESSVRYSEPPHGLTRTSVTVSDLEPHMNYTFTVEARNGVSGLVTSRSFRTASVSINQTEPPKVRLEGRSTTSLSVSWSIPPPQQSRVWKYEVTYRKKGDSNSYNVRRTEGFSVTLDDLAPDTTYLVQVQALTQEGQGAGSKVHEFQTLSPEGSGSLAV
T1 sequence (P29317 24-976 limits assumed): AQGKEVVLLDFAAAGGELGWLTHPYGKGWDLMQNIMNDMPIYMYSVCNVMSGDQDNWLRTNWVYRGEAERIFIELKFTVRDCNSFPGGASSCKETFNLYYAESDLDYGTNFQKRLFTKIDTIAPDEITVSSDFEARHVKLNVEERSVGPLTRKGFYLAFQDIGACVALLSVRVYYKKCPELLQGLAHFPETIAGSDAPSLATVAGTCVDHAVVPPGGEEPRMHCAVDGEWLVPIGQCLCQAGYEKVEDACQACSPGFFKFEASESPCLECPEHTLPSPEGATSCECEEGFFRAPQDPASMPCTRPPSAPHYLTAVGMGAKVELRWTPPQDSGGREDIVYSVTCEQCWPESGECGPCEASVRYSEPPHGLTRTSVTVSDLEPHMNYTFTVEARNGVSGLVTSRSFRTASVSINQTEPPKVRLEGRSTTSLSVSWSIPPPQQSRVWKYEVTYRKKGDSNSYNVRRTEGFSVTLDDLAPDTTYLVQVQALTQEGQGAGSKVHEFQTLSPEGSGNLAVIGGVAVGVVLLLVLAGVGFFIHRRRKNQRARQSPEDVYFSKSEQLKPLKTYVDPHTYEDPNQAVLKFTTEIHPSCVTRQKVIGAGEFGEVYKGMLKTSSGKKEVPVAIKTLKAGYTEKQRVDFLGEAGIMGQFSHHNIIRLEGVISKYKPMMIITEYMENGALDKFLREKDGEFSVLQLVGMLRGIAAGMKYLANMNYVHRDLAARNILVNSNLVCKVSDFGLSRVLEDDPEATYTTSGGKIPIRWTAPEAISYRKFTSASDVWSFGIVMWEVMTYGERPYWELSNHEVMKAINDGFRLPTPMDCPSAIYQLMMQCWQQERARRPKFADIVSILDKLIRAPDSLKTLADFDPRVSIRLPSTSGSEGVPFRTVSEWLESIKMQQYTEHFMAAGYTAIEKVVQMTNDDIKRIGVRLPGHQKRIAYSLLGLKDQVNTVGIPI
T2 sequence (Q03145 26-538): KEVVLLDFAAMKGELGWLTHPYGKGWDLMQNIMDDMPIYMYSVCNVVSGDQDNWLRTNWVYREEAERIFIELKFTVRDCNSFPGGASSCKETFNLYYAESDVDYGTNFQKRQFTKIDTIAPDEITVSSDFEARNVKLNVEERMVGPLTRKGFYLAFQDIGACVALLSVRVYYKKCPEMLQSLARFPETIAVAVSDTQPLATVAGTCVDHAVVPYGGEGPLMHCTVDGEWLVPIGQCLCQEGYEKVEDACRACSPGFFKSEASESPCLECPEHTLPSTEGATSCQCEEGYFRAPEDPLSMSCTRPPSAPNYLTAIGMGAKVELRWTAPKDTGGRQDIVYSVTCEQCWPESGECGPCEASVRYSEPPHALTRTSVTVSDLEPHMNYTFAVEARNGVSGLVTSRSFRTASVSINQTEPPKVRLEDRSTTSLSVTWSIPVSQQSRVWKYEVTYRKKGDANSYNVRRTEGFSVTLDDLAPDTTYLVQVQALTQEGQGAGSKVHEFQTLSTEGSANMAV

B1: anti-EphA2 E152C S375C 1C1 (LC N92Q) hIgG1 (WT Heavy Chain) (antibody, V domains shown)
VH: EVQLLESGGGLVQPGGSLRLSCAASGFTFSHYMMAWVRQAPGKGLEWVSRIGPSGGPTHYADSVKGRFTISRDNSKNTLYLQMNSLRAEDTAVYYCAGYDSGYDYVAVAGPAEYFQHWGQGTLVTVSS
VL: DIQMTQSPSSLSASVGDRVTITCRASQSISTWLAWYQQKPGKAPKLLIYKASNLHTGVPSRFSGSGSGTEFSLTISGLQPDDFATYYCQQYQSYSRTFGQGTKVEIKR
notes: also called 1C1 N92Q IgG; DE-54-AX20
By koff is commonly meant the rate constant with which the complex falls apart. A higher koff goes with a short-lived complex. As a reminder, the kon is a measure of how fast the partners come together. Higher therefore signals fast association. Usually EC50 stands for the concentration at which the effect is half-maximal. Lower therefore signals a more potent agent. B1: the Kd was 0.114 nM in experiment [1]; 385 nM in the experiment with mouse EphA2 ectodomain [2]; 230 nM with cyno EphA2 ectodomain [3]; 196 nM with human EphA2 ectodomain [4]; 0.089 nM and 0.138 nM in experiment [7]. Moreover, the koff was found to be 0.0661 s⁻¹ in the experiment with mouse EphA2 ectodomain [2], 0.0719 s⁻¹ in the experiment with cyno EphA2 ectodomain [3] and 0.0531 s⁻¹ with human EphA2 ectodomain [4]. The association rate constant (kon) with mouse EphA2 ectodomain [2] is 172000 M⁻¹ s⁻¹; in the experiment with cyno EphA2 ectodomain [3], 313000 M⁻¹ s⁻¹; with human EphA2 ectodomain [4], 271000 M⁻¹ s⁻¹. Moreover, the EC50 is 3.83 nM in experiment [5] and 1.95 nM in experiment [6].

B2: anti-EphA2 E152C S375C 1C1 (LC G77S) hIgG1 (WT Heavy Chain) (antibody, V domains shown)
VH: B1 VH
VL: B1 VL with G77S, Q92N
notes: also called 1C1 G77S IgG; ZF-74-CQ11
Consider B2, for which the EC50 in experiment [8] worked out at 2.21 nM; in [9] it was 3.73 nM. The Kd with mouse EphA2 ectodomain [2] stood at 369 nM; in the experiment with cyno EphA2 ectodomain [3], 222 nM; in the experiment with human EphA2 ectodomain [4] it was 186 nM; in [7], 0.171 nM.

B3: anti-EphA2_1C1_DAR4_LC_N92Q_G77S (antibody, human IgG1, kappa, V domains shown)
VH: B1 VH
VL: B1 VL with G77S
notes: also called HE-07-PV32
B3 displayed an EC50 in experiment [10] of 2.59 nM. This lies in the single-digit nanomolar range.

B4: anti-EphA2_1C1_DAR4_LC_N92Q_S72T_G77S (antibody, human IgG1, kappa, V domains shown)
VH: B1 VH
VL: B1 VL with S72T, G77S
B4: a half-maximal response in experiment [11] (EC50) required 1.81 nM. Further, the Kd in experiment [1] was 0.129 nM; in experiment [7], 0.124 nM and 0.134 nM.

B5: anti-EphA2 E152C S375C 1C1 (LC S72T) hIgG1 (WT Heavy Chain) (antibody, V domains shown)
VH: B1 VH
VL: B1 VL with S72T, Q92N
notes: also called 1C1 S72T IgG; FE-76-NO13
As for B5, the Kd in experiment [1] was 0.137 nM; with mouse EphA2 ectodomain [2] it was 377 nM; with cyno EphA2 ectodomain [3], 230 nM; with human EphA2 ectodomain [4], 216 nM; in [7], 0.132 nM and 0.143 nM. Moreover, the results for the koff with mouse EphA2 ectodomain [2], with cyno EphA2 ectodomain [3] and in the experiment with human EphA2 ectodomain [4] were 0.0512 s⁻¹, 0.17 s⁻¹ and 0.0518 s⁻¹, respectively. In addition, the kon in the experiment with mouse EphA2 ectodomain [2] came to 136000 M⁻¹ s⁻¹; in the experiment with cyno EphA2 ectodomain [3] it was 737000 M⁻¹ s⁻¹; in the experiment with human EphA2 ectodomain [4], 240000 M⁻¹ s⁻¹. Further, the EC50 in experiment [12] came to 3.19 nM; in experiment [13] it was 2.12 nM.

B6: anti-EphA2 E152C S375C 1C1 (LC S93Q) hIgG1 (WT Heavy Chain) (antibody, V domains shown)
VH: B1 VH
VL: B1 VL with Q92N, S93Q
notes: also called DA-62-QP06
In the experiment with mouse EphA2 ectodomain [2], B6 showed a Kd of 335 nM, a dissociation rate constant (koff) of 0.0552 s⁻¹ and a kon of 165000 M⁻¹ s⁻¹. In the experiment with cyno EphA2 ectodomain [3], this molecule registered a Kd of 272 nM, a koff of 0.338 s⁻¹ and a kon of 1.24e+06 M⁻¹ s⁻¹. In the experiment with human EphA2 ectodomain [4], this molecule returned a Kd of 237 nM, a koff of 0.0635 s⁻¹ and an association rate constant (kon) of 268000 M⁻¹ s⁻¹. In [14], the EC50 worked out at 2.13 nM.

B7: anti-EphA2_1C1_DAR4_LC_N92Q_S72T (antibody, human IgG1, kappa, V domains shown)
VH: B1 VH
VL: B1 VL with S72T
notes: also called HA-13-AF39
Regarding B7, a half-maximal response in [15] (EC50) required 1.8 nM. In other words, the single-digit nanomolar range.

B8: anti-EphA2 E152C S375C 1C1 (LC N92A) hIgG1 (WT Heavy Chain) (antibody, V domains shown)
VH: B1 VH
VL: B1 VL with Q92A
notes: also called BC-56-WI24
Consider B8, for which the binding result with mouse EphA2 ectodomain [16] and in the experiment with cyno EphA2 ectodomain [17] was “no binding (tested: EphA2 ectodomain titrated from 50 nM)” each time.

B9: anti-EphA2 E152C S375C 1C1 (LC S93A) hIgG1 (WT Heavy Chain) (antibody, V domains shown)
VH: B1 VH
VL: B1 VL with Q92N, S93A
notes: also called HD-58-MP05
In the experiment with mouse EphA2 ectodomain [2], B9 came in with a Kd of 343 nM, an off-rate (koff) of 0.0625 s⁻¹ and a kon of 182000 M⁻¹ s⁻¹. In the experiment with cyno EphA2 ectodomain [3], this molecule came in with a Kd of 259 nM, an off-rate (koff) of 0.181 s⁻¹ and an on-rate constant (kon) of 697000 M⁻¹ s⁻¹. In the experiment with human EphA2 ectodomain [4], this molecule returned a Kd of 265 nM, a koff of 0.131 s⁻¹ and a kon of 493000 M⁻¹ s⁻¹. Moreover, in experiment [18], the concentration giving a half-maximal response (EC50) amounted to 3.44 nM.

B10: anti-EphA2 E152C S375C 1C1 (LC S93V) hIgG1 (WT Heavy Chain) (antibody, V domains shown)
VH: B1 VH
VL: B1 VL with Q92N, S93V
notes: also called PA-62-QD06
As for B10, the Kd came to 286 nM with mouse EphA2 ectodomain [2], 246 nM with cyno EphA2 ectodomain [19] and 268 nM in the experiment with human EphA2 ectodomain [20]. The dissociation rate constant (koff) with mouse EphA2 ectodomain [2] came out at 0.0508 s⁻¹; with cyno EphA2 ectodomain [3], 0.105 s⁻¹; with human EphA2 ectodomain [4], 0.0792 s⁻¹. For the same molecule, the kon in the experiment with mouse EphA2 ectodomain [2] was determined as 178000 M⁻¹ s⁻¹; in the experiment with cyno EphA2 ectodomain [3], 428000 M⁻¹ s⁻¹; with human EphA2 ectodomain [4], 296000 M⁻¹ s⁻¹. This molecule displayed an EC50 in experiment [21] of 20.2 nM.

B11: anti-EphA2 E152C S375C 1C1 (LC S10T_S72T_G77S) hIgG1 (WT Heavy Chain) (antibody, V domains shown)
VH: B1 VH
VL: B1 VL with S10T, S72T, G77S, Q92N
notes: also called 3x germ
On to B11, for which the dissociation rate constant (koff) with mouse EphA2 ectodomain [2] came out at 0.0635 s⁻¹; with cyno EphA2 ectodomain [3] it was 0.121 s⁻¹; with human EphA2 ectodomain [4], 0.0996 s⁻¹. Further, the kon with mouse EphA2 ectodomain [2] stood at 193000 M⁻¹ s⁻¹; with cyno EphA2 ectodomain [3], 886000 M⁻¹ s⁻¹; with human EphA2 ectodomain [4] it was 250000 M⁻¹ s⁻¹. Besides, the values for the Kd with mouse EphA2 ectodomain [22], in the experiment with cyno EphA2 ectodomain [19] and with human EphA2 ectodomain [20] were 328 nM, 137 nM and 398 nM, respectively. Moreover, in [23], it took 23.9 nM to reach a half-maximal effect (EC50).

B12: 3207 (antibody, V domains shown)
VH: QVQLQQSGPGLVKPSQTLSLTCAISGDSVSSNSAAWSWIRQSPGRGLEWLGRIYYRSKWYNDYAVSVKSRITINPDTSKNQFSLQLNSVTPEDTAVYYCARLDHRYHEDTVYPGMDVWGQGTLVTVSS
VL: DIELTQPPSVSVAPGQTARISCSGDNLPAYTVTWYQQKPGQAPVLVIYDDSDRPSGIPERFSGSNSGNTATLTISGTQAEDEADYYCASWDPSSGVVFGGGTKLTVL
notes: the legend prints only '3207'; also called IgG (3207); IgG anti-chicken lysozyme antibody
As for B12, the binding result in [24] is on record as “no binding (tested: 200 nM)”.
